Molecular target: T1, Myc-tagged Mst1 (UniProt Q13043 1-487)
T1 sequence (looked up): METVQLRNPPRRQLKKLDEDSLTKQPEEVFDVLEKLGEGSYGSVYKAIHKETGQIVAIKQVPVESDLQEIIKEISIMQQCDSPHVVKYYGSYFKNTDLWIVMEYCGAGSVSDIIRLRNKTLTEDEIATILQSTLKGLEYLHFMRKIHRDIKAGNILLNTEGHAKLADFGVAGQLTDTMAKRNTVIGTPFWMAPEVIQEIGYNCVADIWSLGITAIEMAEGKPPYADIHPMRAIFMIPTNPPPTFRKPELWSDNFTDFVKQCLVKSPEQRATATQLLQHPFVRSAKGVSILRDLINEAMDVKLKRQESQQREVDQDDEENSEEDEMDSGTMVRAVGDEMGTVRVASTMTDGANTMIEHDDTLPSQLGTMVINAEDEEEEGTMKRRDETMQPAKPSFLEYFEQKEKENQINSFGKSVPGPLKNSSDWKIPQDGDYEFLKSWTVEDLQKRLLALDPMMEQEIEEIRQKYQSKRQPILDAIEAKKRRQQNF
Assay: cell-based or functional assay

B1: FLAG-tagged GAPDH (enzyme)
chain: not shown
  in vitro kinase assay of Mst1 immunoprecipitated from HEK293T cells transfected with Myc-Mst1 with or without Flag-GAPDH: Mst1 autophosphorylation and MBP phosphorylation, increase with GAPDH: ~2 fold
